This note sets out measurements from FireProtDB (doi:10.1016/j.bpc.2006.12.004).

Values joined by “and” are separate entries in the source; they are usually repeats but may differ in a detail not shown here. Equal values may be shown once.

For the series the following is noted: pH 8.4, Thermal, Capillary electrophoresis, whole UniProt chain shown; for unfolding free energy: 25 °C.
The mark [1] stands for this setting: Bos taurus, Tris Gly 25 mM 192 mM, NaCl 25 mM.
Setting [2] is: Bos taurus, Tris Gly fructose 25 mM 192 mM 1.21 M, NaCl 25 mM.
Where [3] appears, read: Bos taurus, Tris Gly sucrose 25 mM 192 mM 0.15 M, NaCl 25 mM.
The mark [4] stands for this setting: Bos taurus, Tris Gly sucrose 25 mM 192 mM 0.31 M, NaCl 25 mM.
[5] abbreviates: Bos taurus, Tris Gly sucrose 25 mM 192 mM 0.47 M, NaCl 25 mM.
Setting [6] is: Bos taurus, Tris Gly sucrose 25 mM 192 mM 0.63 M, NaCl 25 mM.
The mark [7] stands for this setting: Bos taurus, Tris Gly sucrose 25 mM 192 mM 0.96 M, NaCl 25 mM.
Where [8] appears, read: Aspergillus oryzae (strain ATCC 42149 / RIB 40), Tris Gly 25 mM 192 mM, NaCl 30 mM.
The mark [9] stands for this setting: Aspergillus oryzae (strain ATCC 42149 / RIB 40), Tris Gly fructose 25 mM 192 mM 0.57 M, NaCl 30 mM.
The mark [10] stands for this setting: Aspergillus oryzae (strain ATCC 42149 / RIB 40), Tris Gly fructose 25 mM 192 mM 1.21 M, NaCl 30 mM.
The mark [11] stands for this setting: Aspergillus oryzae (strain ATCC 42149 / RIB 40), Tris Gly fructose 25 mM 192 mM 1.52 M, NaCl 30 mM.
The mark [12] stands for this setting: Aspergillus oryzae (strain ATCC 42149 / RIB 40), Tris Gly sucrose 25 mM 192 mM 0.15 M, NaCl 30 mM.
The mark [13] stands for this setting: Aspergillus oryzae (strain ATCC 42149 / RIB 40), Tris Gly sucrose 25 mM 192 mM 0.31 M, NaCl 30 mM.
The mark [14] stands for this setting: Aspergillus oryzae (strain ATCC 42149 / RIB 40), Tris Gly sucrose 25 mM 192 mM 0.47 M, NaCl 30 mM.
Setting [15] is: Aspergillus oryzae (strain ATCC 42149 / RIB 40), Tris Gly sucrose 25 mM 192 mM 0.63 M, NaCl 30 mM.
[16] abbreviates: Aspergillus oryzae (strain ATCC 42149 / RIB 40), Tris Gly sucrose 25 mM 192 mM 0.80 M, NaCl 30 mM.

B1: Alpha-lactalbumin wild type, P00711 (protein)
chain: MMSFVSLLLVGILFHATQAEQLTKCEVFRELKDLKGYGGVSLPEWVCTTFHTSGYDTQAIVQNNDSTEYGLFQINNKIWCKDDQNPHSSNICNISCDKFLDDDLTDDIMCVKKILDKVGINYWLAHKALCSEKLDQWLCEKL
The term Tm denotes the temperature at the midpoint of the melting transition. Regarding B1, the unfolding free energy under setting [1] amounted to 3.3 kcal/mol; the unfolding free energy (Bos taurus, Tris Gly fructose 25 mM 192 mM 0.57 M, NaCl 25 mM) stood at 4.5 kcal/mol; the unfolding free energy under setting [2] stood at 5.6 kcal/mol; the unfolding free energy under setting [3] turned out to be 3.8 kcal/mol; the unfolding free energy under setting [4] stood at 4.6 kcal/mol; the unfolding free energy under setting [5] amounted to 5.3 kcal/mol. Further, the unfolding free energy is, setting by setting: under setting [6], 5.7 kcal/mol; under setting [7], 7 kcal/mol. Also, the midpoint of thermal melting (Tm) under setting [1] is 56.1 °C and 56 °C; the Tm under setting [2] is 61.6 °C; the melting temperature (Tm) (Bos taurus, Tris Gly fructose 25 mM 192 mM 1.83 M, NaCl 25 mM) was found to be 63.2 °C; the Tm under setting [3] was determined as 56.3 °C; the Tm under setting [4] is 57.5 °C; the Tm under setting [5] amounted to 59 °C. In addition, the Tm worked out at 60.5 °C under setting [6] and 62.4 °C under setting [7]. For the same protein, the “heat capacity change of unfolding” value under setting [1] is 2.1 kcal/mol/K. Further, the “unfolding enthalpy (van 't Hoff)” value under setting [1] is 69 kcal/mol.

B2: Guanyl-specific ribonuclease T1 wild type, P00651 (protein)
chain: MMYSKLLTLTTLLLPTALALPSLVERACDYTCGSNCYSSSDVSTAQAAGYQLHEDGETVGSNSYPHKYNNYEGFDFSVSSPYYEWPILSSGDVYSGGSPGADRVVFNENNQLAGVITHTGASGNNFVECT
Regarding B2, the unfolding free energy is, setting by setting: under setting [8], 8.2 kcal/mol; (Aspergillus oryzae (strain ATCC 42149 / RIB 40), Tris Gly fructose 25 mM 192 mM 0.29 M, NaCl 30 mM) 9.1 kcal/mol; under setting [9], 9.5 kcal/mol; under setting [10], 10.5 kcal/mol; under setting [11], 11.2 kcal/mol; under setting [12], 9.1 kcal/mol. Further, the unfolding free energy was found to be 9.5 kcal/mol under setting [13], 10.2 kcal/mol under setting [14], 10.6 kcal/mol under setting [15] and 11.1 kcal/mol under setting [16]. The Tm reads like this: under setting [8], 62.6 °C and 62.5 °C; under setting [9], 64.5 °C; (Aspergillus oryzae (strain ATCC 42149 / RIB 40), Tris Gly fructose 25 mM 192 mM 0.89 M, NaCl 30 mM) 66 °C; under setting [10], 66.5 °C; under setting [11], 68 °C; under setting [12], 63.6 °C. The Tm runs as follows: under setting [13], 64.7 °C; under setting [14], 65.9 °C; under setting [15], 66.5 °C; under setting [16], 67.1 °C. For the same protein, the “heat capacity change of unfolding” value under setting [8] is 1.3 kcal/mol/K. Further, the “unfolding enthalpy (van 't Hoff)” value under setting [8] was 98 kcal/mol.
